Here are results for three molecules from publication PMC10362042 (Nature Communications, 2023).

Common to all, as to test: SPR
What all share (settings): both partners purified

The target of assay [1] is T1, SARS-CoV-2 Omicron BA.1 RBD (residues 319-541) (SARS-CoV-2, UniProt P0DTC2 319-541).
Assay [2] deals with T2, SARS-CoV-2 Omicron BA.4/5 RBD (residues 319-541) (SARS-CoV-2, UniProt P0DTC2 319-541).
Assay [3] has as its target T3, SARS-CoV-2 Omicron BA.2 RBD (residues 319-541) (SARS-CoV-2, UniProt P0DTC2 319-541).
Assay [4] deals with T1, SARS-CoV-2 Omicron BA.1 RBD (residues …). This is another data set of the same source.
For assay [5], the target named is T2, SARS-CoV-2 Omicron BA.4/5 RBD (residues …). The source holds these as a separate data set.
Assay [6] concerns the target T3, SARS-CoV-2 Omicron BA.2 RBD (residues …). The source holds these as a separate data set.
Assay [7] deals with SARS-CoV-2 Omicron BA.4/5 RBD (residues 319-541) (SARS-CoV-2, UniProt P0DTC2 319-541). This is another data set of the same source.
The target in assay [8] is SARS-CoV-2 Omicron BA.1 RBD (residues 319-541) (SARS-CoV-2, UniProt P0DTC2 319-541). This is another data set of the same source.
Assay [9] deals with SARS-CoV-2 Omicron BA.2 RBD (residues 319-541) (SARS-CoV-2, UniProt P0DTC2 319-541). This is another data set of the same source.

Where “and” joins values, the source holds several entries; their conditions need not be identical. Identical values can stand only once.

B1: Golden Hamster ACE2 (residues 1-615) (receptor)
chain: QSIIEEQAKTFLDKFNQEAEDLSYQSALASWNYNTNITEENAQKMNEAAAKWSAFYEEQSKLAKNYSLQEVQNLTIKRQLQALQQSGSSALSADKNKQLNTILNTMSTIYSTGKVCNPKNPQECLLLEPGLDDIMATSTDYNERLWAWEGWRAEVGKQLRPLYEEYVVLKNEMARANNYEDYGDYWRGDYEAEGADGYNYNGNQLIEDVERTFKEIKPLYEQLHAYVRTKLMNTYPSYISPTGCLPAHLLGDMWGRFWTNLYPLTVPFGQKPNIDVTDAMVNQGWNAERIFKEAEKFFVSVGLPYMTQGFWENSMLTDPGDDRKVVCHPTAWDLGKGDFRIKMCTKVTMDNFLTAHHEMGHIQYDMAYATQPFLLRNGANEGFHEAVGEIMSLSAATPEHLKSIGLLPSDFQEDNETEINFLLKQALTIVGTLPFTYMLEKWRWMVFKGDIPKEQWMEKWWEMKREIVGVVEPLPHDETYCDPAALFHVSNDYSFIRYYTRTIYQFQFQEALCQAAKHDGPLHKCDISNSTEAGQKLLNMLRLGKSEPWTLALENVVGARNMDVRPLLNYFEPLSVWLKEQNKNSFVGWNTDWSPYAD
The term Kd denotes the concentration at which binding is half-saturated. Read a high Kd as weaker binding. A word on the kon: it is the rate constant with which the complex forms. For orientation: koff means a measure of how fast the partners let go of each other. B1: in assay [1], the equilibrium dissociation constant (Kd) was 277 nM and 230 nM and 296 nM and 268 nM. Moreover, in assay [2], the Kd is 118 nM and 117 nM and 166 nM and 133 nM; the kon is 26000 M⁻¹ s⁻¹ and 13000 M⁻¹ s⁻¹ and 16000 M⁻¹ s⁻¹. Besides, in assay [3], the dissociation constant (Kd) was 174 nM and 106 nM and 167 nM and 149 nM; the koff is 0.86 s⁻¹ and 1 s⁻¹ and 0.75 s⁻¹; the kon was 2.5e+06 M⁻¹ s⁻¹ and 3e+06 M⁻¹ s⁻¹ and 2e+06 M⁻¹ s⁻¹.

B2: Horse ACE2 (receptor)
chain: QSTTEDLAKTFLEKFNSEAEELSHQSSLASWSYNTNITDENVQKMNEAGARWSAFYEEQCKLAKTYPLEEIQNLTVKRQLQALQQSGSSVLSADKSKRLNEILNTMSTIYSTGKVCNPSNPQECLLLEPGLDAIMENSKDYNQRLWAWEGWRSEVGKQLRPLYEEYVVLKNEMARANNYEDYGDYWRGDYEAEGPSGYDYSRDQLIEDVERTFAEIKPLYEHLHAYVRAKLMDTYPSHINPTGCLPAHLLGDMWGRFWTNLYSLTVPFGQKPNIDVTDAMVDQSWDAKRIFEEAEKFFVSVGLPNMTQGFWENSMLTEPGDGRKVVCHPTAWDLGKGDFRIKMCTKVTMDDFLTAHHEMGHIQYDMAYAVQPYLLRNGANEGFHEAVGEIMSLSAATPNHLKAIGLLPPDFYEDSETEINFLLKQALTIVGTLPFTYMLEKWRWMVFKGEIPKEEWMKKWWEMKREIVGVVEPVPHDETYCDPAALFHVANDYSFIRYYTRTIYQFQFQEALCQTAKHEGPLHKCDISNSTEAGQKLLQMLSLGKSEPWTLALERIVGVKNMDVRPLLNYFEPLFTWLKDQNKNSFVGWSTNWSPYAD
As to B2, the Kd was 7.44 µM and 7.79 µM and 8.72 µM and 7.98 µM in assay [4]; 455 nM and 445 nM and 459 nM and 453 nM in assay [5]; 38.2 µM and 38.8 µM and 44.6 µM and 40.5 µM in [6]. For the same molecule, the dissociation rate constant (koff) is 0.23 s⁻¹ and 0.25 s⁻¹ and 0.26 s⁻¹ in assay [4]; 0.02 s⁻¹ and 0.021 s⁻¹ in assay [5]; 0.38 s⁻¹ and 0.37 s⁻¹ in assay [6]. For the same molecule, the kon in assay [4] was 30000 M⁻¹ s⁻¹ and 32000 M⁻¹ s⁻¹; in assay [5], 45000 M⁻¹ s⁻¹ and 46000 M⁻¹ s⁻¹; in [6], 9800 M⁻¹ s⁻¹ and 9600 M⁻¹ s⁻¹ and 8400 M⁻¹ s⁻¹.

B3: Cat ACE2 (receptor)
chain: QSTTEELAKTFLEKFNHEAEELSYQSSLASWNYNTNITDENVQKMNEAGAKWSAFYEEQSKLAKTYPLAEIHNTTVKRQLQALQQSGSSVLSADKSQRLNTILNAMSTIYSTGKACNPNNPQECLLLEPGLDDIMENSKDYNERLWAWEGWRAEVGKQLRPLYEEYVALKNEMARANNYEDYGDYWRGDYEEEWTDGYNYSRSQLIKDVEHTFTQIKPLYQHLHAYVRAKLMDTYPSRISPTGCLPAHLLGDMWGRFWTNLYPLTVPFGQKPNIDVTDAMVNQSWDARRIFKEAEKFFVSVGLPNMTQGFWENSMLTEPGDSRKVVCHPTAWDLGKGDFRIKMCTKVTMDDFLTAHHEMGHIQYDMAYAVQPFLLRNGANEGFHEAVGEIMSLSAATPNHLKTIGLLSPGFSEDSETEINFLLKQALTIVGTLPFTYMLEKWRWMVFKGEIPKEQWMQKWWEMKREIVGVVEPVPHDETYCDPASLFHVANDYSFIRYYTRTIYQFQFQEALCRIAKHEGPLHKCDISNSSEAGKKLLQMLTLGKSKPWTLALEHVVGEKKMNVTPLLKYFEPLFTWLKEQNRNSFVGWNTDWRPYADQSIKVRISLKSALGDEAYEWNDNEMYLFRSSVAYAMREYFSKVKNQTIPFVEDNVWVSNLKPRISFNFFVTASKNVSDVIPRSEVEEAIRMSRSRINDAFRLDDNSLEFLGIQPTLSPPYQPPVT
On to B3, for which, in [7], the dissociation constant Kd was 149 nM (2×) and 166 nM and 155 nM; the off-rate (koff) is 0.069 s⁻¹ and 0.071 s⁻¹ and 0.079 s⁻¹; the association rate constant (kon) is 470000 M⁻¹ s⁻¹ and 570000 M⁻¹ s⁻¹ and 380000 M⁻¹ s⁻¹. Besides, in [8], the Kd was 60.8 nM and 78.5 nM and 65.2 nM and 68.2 nM; the kon was 2.8e+06 M⁻¹ s⁻¹ and 4.2e+06 M⁻¹ s⁻¹ and 2e+06 M⁻¹ s⁻¹. Further, in assay [9], the equilibrium dissociation constant (Kd) is 133 nM and 128 nM and 158 nM and 140 nM; the koff was 0.014 s⁻¹ and 0.036 s⁻¹ and 0.029 s⁻¹; the kon is 180000 M⁻¹ s⁻¹ and 200000 M⁻¹ s⁻¹ and 100000 M⁻¹ s⁻¹.
